The text below walks through data of the DeepSol protein solubility set.

The data set can be described thus: soluble on expression in E. coli; label from the status in PepcDB or PDB records.
Regarding “MEDKEAVRRGVTLFALPAHAGEGAKAIWQTCDVIWSALGDSSEDVNWYTKRATLSAVYSATVLYWLGDETPGHEATWEFLDRRIDNVMQFEKFKADVQKNPLLKPLLAGPNWLFAQMRAPLEHHHHHH”, the “soluble on expression in E. coli” value is on record as “soluble”.
Take “GMPDSPTLLDLFAEDIGHANQLLQLVDEEFQALERRELPVLQQLLGAKQPLMQQLERNGRARAEILREAGVSLDREGLARYARERADGAELLARGDELGELLERCQQANLRNGRIIRANQASTGSLLNILRGQDAPSLYDSRGGTASSSRQRPLSQA”: the “soluble on expression in E. coli” value was “soluble”.
For “MNTYFDIPHRLVGKALYESYYDHFGQMDILSDGSLYLIYRRATEHVGGSDGRVVFSKLEGGIWSAPTIVAQAGGQDFRDVAGGTMPSGRIVAASTVYETGEVKVYVSDDSGVTWVHKFTLARGGADYNFAHGKSFQVGARYVIPLYAATGVNYELKWLESSDGGETWGEGSTIYSGNTPYNETSYLPVGDGVILAVARVGSGAGGALRQFISLDDGGTWTDQGNVTAQNGDSTDILVAPSLSYIYSEGGTPHVVLLYTNRTTHFCYYRTILLARAVAGSSGWTERVPAYSAPAASGYTSQVVLGGRRILGNLFRETSSTTSGAYQFEVYLGGVPDFESDWFSVSSNSLYTLSHGLQRSPRRVVVEFARSSSPSTWNIVMPSYFNDGGHKGSGAQVEVGSLNIRLGTGAAVWGTGYFGGIDNSATTRLATGYYRVRAWI”, the “soluble on expression in E. coli” value is recorded as “soluble”.
With “MSLSEPILFVDDEQHVLNALQRVFSESGLETVFTRSPIEALELCRSKKFAVIVSDNMMPEMKGIELLTRIKEESPETVKCLLTAHADLDTALQAINSGEVFRFIVKPWRNEELYQAVSEGVARFREGHHHHHTDPNSSSVDKLAAALEHHHHHH” the entry was “soluble”; with “MYYLELALGTQEMEAIVGKVTEVNKDTFWPIVKAAGDKPVVLDMFTQWCGPCKAMAPKYEKLAEEYLDVIFLKLDCNQENKTLAKELGIRVVPTFKILKENSVVGEVTGAKYDKLLEAIQAARS”, “soluble”; with “SLPSVLDTLAAHSDNPSSFLALNSGNAYFHDGGFDGACAYRTSGRYVLQFGGPFTAPEHRARLLDAFAAHAGRRLVAVQLQRADAELYAAHGFTVNQLGASYAVDLSRFTLRGSRFVRLRNKISRARRAGLEVAEVMAGDDCAELDRIDQCWLRDKGRHVKELRFLVGQRNGSLQRHRRLFVGRIDGETAGYINYSPVYGSRSGWLHDLSRRRPDAPPGVMEALNATVMERLTAEGAGWLHFGFTPFTGLDPEHELPGASRMFTRFARLLAERGDVIYPAASQLEYKQKWAPHVVLPEYIAFRGRPRPGAVWQLLRATNAL”, “soluble”.
Then “MGSDKIHHHHHHMTQTDSLPGVQATVQDMGERARRAARVLRSLPTGRKVQALRALAAELRAREAGILAANAQDVQAAEAAGLPAPLVDRLRLSAGALAAIARDVEAVAALPDPVGEQTDEKTLPSGIRVSQRRVPLGVLGVIYESRPNVTVDVAALALMSGNAAILRGGKETVNSNAALEDAIHAALNREGLPADAVQVIRDPDRARMLELLRLDESVDAIIPRGGAGLHRFCVENATVPVIVGGIGVVHIYLDGSFVQTPQDVQIAAALIRNAKTQKPSACNALDTLLIDRAALAALPDVVRPLLESGVEVRADAEAQAALAGAGLNVTSAQLGDYGTEFLALVASLRTVSGLDEALDFIAERGGHTDVILTRDPAQAERFVQDVDSAAVMVNVSPRFNDGGQLGLGAEVAISTQKLHARGPMGLRELTTSKWVVRGEGQVRD”, with “not soluble”; and “MSLAADTPTTCCFSYTSRQIPQNFIADYFETSSQCSKPGVIFLTKRSRQVCADPSEEWVQKYVSDLELSA”, with “soluble”.
With “MGSDKIHHHHHHMKKIYKSLTVSAIVATVSLSALPQSLAITHESQPTKQQRTVLFDRSHGQTAGAADWVSDGAFSDYADSIQKQGYDVKAIDGHSNITEASLKSSKIFVIPEANIPFKESEQAAIVNYVKQGGNVVFISDHYNADRNLNRIDSSEAMNGYRRGAYEDMSKGMNAEEKSSTAMQGVKSSDWLSTNFGVRFRYNALGDLNTSNIVSSKESFGITEGVKSVSMHAGSTLAITNPEKAKGIVYTPEQLPAKSKWSHAVDQGIYNGGGKAEGPYVAISKVGKGKAAFIGDSSLVEDSSPKYVREDNGEKKKTYDGFKEQDNGKLLNNITAWMSKDSDGKSLKASGLTLDTKTKLLDFERPERSTEPEKEPWSQPPSGYKWYDPTTFKAGSYGSEKGADPQPNTPDDHTPPNQNVKISFDIPQNVSVNEPFEVTIHLKGFEANQTLENLRVGIYKEGGRQIGQFSSKDNDYNPPGYSTLPTVKADENGNATIKINAKVLESMEGSKIRLKLGDKTLITTDFK” the entry was “not soluble”; with “MAHHHHHHMSENVAAAQRRWQAGMHEVEAYLNALDSARADSAKAGLYHRAQQCMQHMEKIIRLLAKRIAREANIMAERARQALTEQQRLLQRNLRKRWKTKMLVYEENASAMLAAAEQHHYAERVREDERAHEELRSVRAGGSMAHSRSSKVQHLQSEIQLYLRQHRYREAERAQAQLSRFEKQEQQSQQRNLTHLQEQRLQAMRMKQEEQLAKMKAAYQQEKQEITRTCRAELDAMTRQHEVALQAVEERRLFLHERVQAILKAYNDADTLDPRAAGQKLIRISQLLWTSREVQQSSKRI”, “not soluble”; with “MSKEGDILKPEEETMEFPEGDKVKVILSKEDFEASLKEAGERLVAVDFSATWCGPCRTIRPFFHALSVKHEDVVFLEVDADNCEEVVRECAIMCVPTFQFYKKEEKVDELCGALKEKLEAVIAELK”, “soluble”.
As for “RVASNLDNKARVTELFNSAYSILTEVEKLAQEGKMSEPEAKALATRLMRNNLYKDNEYVYVADENMTFVATPLDPQLHDTSFHDFKDGKGNSVGR”, the “soluble on expression in E. coli” value is on record as “not soluble”.
With “MIPGEYIIKNEFITLNDGRRTLNIKVSNTGDRPVQVGSHYHFFEVNRYLEFDRKSAFGMRLDIPSGTAVRFEPGEEKTVQLVEIGGSREIYGLNDLTCGPLDREDLSNVFKKAKELGFKGVE” the entry was “not soluble”.
Consider “MSLNKLAFLFPLLLAPGVAHAEPPQGVEFLHWWTSDGEQQALQTLKAQLKRHDIELLQSPVLGGGGDSAMTVLQARALAGNPPSFAQIEGPSIKAWDAIGILHNVNAVADEQRWDEVLYPLSIEINKTQNGYIALPLTLHRLNWLWVNHKLLKQLNLSAPKNWQEMFAAMELAEQNGIVPIAVGEQPWQVAQLFENLVISTGGVEFYTNAMVKLERDSIDSETLRQALTQFRRLSLLIDNQLPDSKWDTATQALADGQALFQIGGDWILGELLANQVSVPQEVGCYPTPDSDGVFLYNMDSLVFMSSKSFSSEAAQQTASALADVEFQAKFNKVKGSIPVRTDIDISDFNPCQVQSYQDFHYGVKHNLAVPSMIDSMAVNPVAQQAINSEIFRFYRNPKMEPDELIKRIIAISQSGEGHHHHHH”, for which the “soluble on expression in E. coli” value is recorded as “soluble”.
Then “MAHHHHHHMYKYEKLYFFMCWKKCRFNNLTKVFLHSSNDYYNNLNVIKKEKGIFEKLLCIGNYNVDNFCFDKELYEKYRECIKNDYEKIRIKLKERKQNEYNNIHSKNLEHNESNICNNNNNNNINVYESYLYNIIQNNDYKDILISDVIYENGKNILCIGEANLSFSLLLQKNLNLCKVVSTSREDESVLIKKFGKKYFSKNLKLLESSGGIYIPNMNVENLSNQFLKNTFDIIIFNFPFVLPTKECIEKKWNIKLEREEIYSDNLKNETNSNNNSNSNNNNKSNNNNGNNNSSNNVYIKYYKKTEYFLLNKLIYHLFKCASHLLKNEGFLHIRLNDKYLTCSFPKNMSLSFLQKIDFSNSYIIYKSLKYVPSLFDCTFLNYEDKKKEKTKNNVIFTSSGKKIFKSFKMKHTSTLIFQKI”, with “not soluble”; and “SWYIEEDLEKVNSNYFEEKDYELCRNELETTILDSVMKRVKGLEKVGIIYSGGVDSTLISKLASEYCEVILYSVGSENSEDLIYAERAAKDMGLDFRKKIISEDEFEEYVVKVAKAIDELDVMKLSVGIPILAASEMAKEDGIKVLLSGQGADELFAGYNRYQRILNEKGEDGLKESIISDVFDIHKINLERDDHCTMANGVELRVPFLDKFVIDVGLSIPVEYKIEEPRKKILRDIASKYVPDYIAQRPKKAAQYGSGSEKM”, with “not soluble”.
